T1: MBP-ZFP57 DNA binding domain (Glu87-Ala195) (Mus musculus, UniProt Q8C6P8 87-195)
T1 sequence: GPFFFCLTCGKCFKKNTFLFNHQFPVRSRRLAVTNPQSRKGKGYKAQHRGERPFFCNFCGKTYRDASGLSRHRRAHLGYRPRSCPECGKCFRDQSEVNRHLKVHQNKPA

B1: Methylated Control (dsDNA)
DNA 1: GTAATATTGCCGCAGTAATA
DNA 2: TATTACTGCGGCAATATTAC
modifications: 5mC at top 11 and bottom 9 (5'-based; printed Z)
B2: Methylated 1G (dsDNA)
DNA 1: GTAATATGGCCGCAGTAATA
DNA 2: TATTACTGCGGCCATATTAC
modifications: 5mC at top 11 and bottom 9
B3: Methylated Ston2 JF1 (dsDNA)
DNA 1: CTGGGGCGGCAGTTGCCGCAGATGG
DNA 2: CCATCTGCGGCAACTGCCGCCCCAG
modifications: 5mC at top 7, 17; methylated bottom strand not in material
B4: Methylated Commd1 (dsDNA)
DNA 1: GTAACTGCGGCCGCCCCACA
DNA 2: TGTGGGGCGGCCGCAGTTAC
modifications: 5mC at top 8, 12 and bottom 12, 8 (5'-based)

Assays:
[1] = target: T1, MBP-ZFP57 DNA binding domain …; assay: EMSA; EMSA: 25 pmol protein, 2.5 pmol dsDNA, 25 mM HEPES pH 7.9, 50 mM KCl, 6.25 mM MgCl2, 5% glycerol, on ice 10 min; 5% PAGE, SYBR Green stain; conditions: protein: recombinant; blunt
[2] = target: T1, MBP-ZFP57 DNA binding domain …; assay: EMSA; lower efficiency than control TGCCGC; EMSA: 25 pmol protein, 2.5 pmol dsDNA, 25 mM HEPES pH 7.9, 50 mM KCl, 6.25 mM MgCl2, 5% glycerol, on ice 10 min; 5% PAGE, SYBR Green stain; conditions: protein: recombinant; blunt

Binder | binding result [1] | binding result [2]
B1 | binds | –
B2 | binds | –
B3 | binds | –
B4 | – | binds

Source: article PMC4756812, “ZFP57 recognizes multiple and closely spaced sequence motif variants to maintain repressive epigenetic marks in mouse embryonic stem cells”
